Consider five molecules from patent US20190233521A1 (GENEFRONTIER, published 2019).

For orientation: Kd means the equilibrium constant for the complex coming apart.

The target of test [1] is T1, human CD69 recombinant protein (extracellular region 62-199, homodimer) (human, UniProt Q07108 62-199).
T1 construct: Expressed in the E. coli periplasm from cDNA NM_001781; also called human CD69 homodimer protein; extracellular domain of human CD69
T1 sequence: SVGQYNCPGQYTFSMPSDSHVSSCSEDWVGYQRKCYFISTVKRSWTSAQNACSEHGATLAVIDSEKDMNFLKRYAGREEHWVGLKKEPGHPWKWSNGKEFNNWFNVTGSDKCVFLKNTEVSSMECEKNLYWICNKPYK
In words: Scatchard plot; solution equilibrium with antigen, free IgG measured by ELISA. How it is done: In the present specification, the KD value relating to the binding affinity of the antibody of the present invention to human CD69 is calculated according to the principle described in Immunoassays (OXFORD UNIVERSITY PRESS, 2000) using a scatchard plot method. An antibody is incubated with various concentrations of antigen (extracellular domain of human CD69) at room temperature for 2 hr until equilibrium, and the amount of free antibody present in the incubation solutions is measured by the ELISA method. The binding constant and dissociation constant (KD value) are determined based on the changes in the amount of free antibody in each equilibrated sample. The antibody concentration during equilibration reaction is to be 0.015 μg/ml, and an ELISA plate for the measurement of the amount of free antibody is to be immobilized with the antigen at 1 μg/ml.
(§1) The affinity of the prepared IgG clones for human CD69 was evaluated by scatchard plot. To be specific, it was calculated according to the principle described in Immunoassays (OXFORD UNIVERSITY PRESS, 2000). An antibody was incubated with various concentrations of antigen at room temperature for 2 hr until it reaches equilibrium, and the amount of free antibody present in the incubation liquids was measured by the ELISA method. The binding constant and dissociation constant (KD value) were determined based on the changes in the amount of free antibody in each equilibrate sample. The concentration of the antibody in the equilibration reaction was set to […], and an ELISA plate immobilized with the antigen at 1 μg/ml was used for the measurement of the amount of free antibody.
(ELISA stands for enzyme-linked immunosorbent assay.)

For test [2], the target named is T2, human CD69 partial peptide #25 (LKRYAGREEHWV) (human).
T2 construct: Immobilized on a PepSpots peptide array (JPT)
T2 peptide: LKRYAGREEHWV
Nature of the test: peptide array (PepSpots), HRP-labelled antibody. The source says: (§2) To be specific, as shown in the following Table, a peptide array consisting of peptides having the residue number of 12 amino acid residues and an offset of 3 amino acid residues was produced for a sequence covering the extracellular domain of human CD69 (60-199) (PepSpots, manufactured by JPT). The peptide array and the anti-human CD69 antibody were reacted according to the manual of JPT. Anti-human CD69 antibodies labeled with HRP (Peroxidase Labeling Kit-NH2, manufactured by Dojindo) were used.

Test [3] deals with T3, human CD69 partial peptide #24 (MNFLKRYAGREE) (human).
T3 construct: Immobilized on a PepSpots peptide array (JPT)
T3 peptide: MNFLKRYAGREE
Nature of the test: peptide array (PepSpots), HRP-labelled antibody.
Excerpt: as §2

In test [4] the target is T4, human CD69 partial peptide #26 (YAGREEHWVGLK) (human).
T4 construct: Immobilized on a PepSpots peptide array (JPT)
T4 peptide: YAGREEHWVGLK
In words: peptide array (PepSpots), HRP-labelled antibody.
Excerpt: as §2

Test [5] deals with T1, human CD69 recombinant protein …. Nature of the test: Scatchard plot KD; reference 160-c76 IgG. How it is done:
as §1

Where a chain is given by its changes, count along the chain named.

B1: 160-c103 IgG antibody (IgG4) (antibody, V domains shown)
VH: QVQLVESGGGLVQPGGSLRLSCAASGFTFSNYYMSWVRQAPGKGLEWVSVISYDGISTHYADSVKGRFTISRDNSKNTLYLQMNSLRAEDTAVYYCARYIGNSLYMDFWGQGTLVTVSS
VL: DIVLTQSPATLSLSPGERATLSCRASQSVSSYLAWYQQKPGQAPRLLIYGTSIRATGVPARFSGSGSGTDFTLTISSLEPEDFATYYCQQEYSSPPTFGQGTKVEIKR
notes: Full IgG made in HEK293T; HRP-labelled in the peptide array
Regarding B1, the Kd in test [1] came out at 7.58 nM. In addition, the binding result in test [2], in test [3] and in test [4] was “binds” in each case.

B2: 234-61 IgG antibody (IgG4) (antibody, V domains shown)
VH: QVQPGGSLRLSCAASGFTFSNFVMHWVRQAPGKGLEWVSSISGSSSSTYYADSVKGRFTISRDNSKNTLYLQMNSLRAEDTAVYYCARYYYASFDYWGQGTLVTVSS
VL: DIELTQPPSVSVAPGQTARISCSGDSLGSKYVYWYQQKPGQAPVVVIYGDSKRPSGIPERFSGSNSGNTATLTISGTQAEDEADYYCQSYTSFTTKIVFGGGTKLTVLG
On to B2, for which the dissociation constant Kd in test [1] turned out to be 1.13 nM. Further, the “fold increase of affinity against 160-c76” value in test [5] was 9 fold.

B3: 160-c76 IgG antibody (IgG4) (antibody, V domains shown)
VH: B2 VH
VL: DIELTQPPSVSVAPGQTARISCSGDSLGSKYVYWYQQKPGQAPVVVIYGDSKRPSGIPERFSGSNSGNTATLTISGTQAEDEADYYCQSYDSNIMVFGGGTKLTVLG
notes: Full IgG made in HEK293T
For the molecule B3, the Kd in test [1] worked out at 27.8 nM.

B4: 234-83 IgG antibody (IgG4) (antibody, V domains shown)
VH: B2 VH
VL: B2 VL with Q88G, S92T, F93G, T94A, T95K, K96S, I97H
notes: HRP-labelled in the peptide array
With B4, the Kd in test [1] stood at 2.83 nM. In addition, the “fold increase of affinity against 160-c76” value in test [5] is ≥ 9 fold.

B5: 160-c7 IgG antibody (IgG4) (antibody, V domains shown)
VH: QVQLVQSGAEVKKPGASVKVSCKASGYTFTSYDMHWVRQAPGQGLEWMGWINPYSGNTNYAQKFQGRVTMTRDTSISTAYMELSSLRSEDTAVYYCARMYYDKDYLSWGTDSWGQGTLVTVSS
VL: DIQMTQSPSSLSASVGDRVTITCRASQDISSYLNWYQQKPGKAPKLLIYGASNLQSGVPSRFSGSGSGTDFTLTISSLQPEDFAVYYCQQYSDYPHTFGQGTKVEIKR
notes: as for B1
As for B5, the Kd in test [1] was determined as 47.6 nM. In test [4], the binding result is “binds”.
